Test results reported in the nanobody polyreactivity screen of Harvey et al. (2022).

Experiment: yeast display, Sf9 membrane polyspecificity reagent, FACS + sequencing; frameworks hold sequencing errors
Method in brief: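 Genes from sorted yeast were amplified by colony PCR, read by MiSeq 2 × 250 sequencing and filtered on CDR length. These cells carried a synthetic nanobody library in Saccharomyces cerevisiae BJ5465 and were sorted by FACS into low and high (top ~1%) gates on anti-HA and streptavidin fluorescence. Polyreactivity is labelled according to the gate of origin.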

Question: Which “polyreactivity (PSR sort gate)” value does the source give for “QVQLVESGGGLVQAGGSLRLTCAASAFIFHFNAMGWYRQAPGKERELVAAISRTGGTTYYADSVKGRFTISRDNAKNTVYLQMNSLKPEDTAVYYCAAYSKYGQHYDYWGQGTQVTVSS” here?
Answer: high polyreactivity

Question: With “QVHLVESRGGLDQAGGSLRLSCAASGRTVYQYAMGRNRQAPGKERELVAAITRSGSRTYYADTVKGRFTISRDNAKNTVYLQMNSLKPEDTAVYYCAADGHGGFPIDEYYYWGQGTQVTVSS” as the sequence, how does the “polyreactivity (PSR sort gate)” value read?
Answer: high polyreactivity

Question: For “QDQLVESGGGLVQEGGSLRLSCAAYGTIFQIYAMGWYIQAPGKERELVAAINSGGISKYADSVKGRFTISRDNAKNSVYLQMNSLTPADTAVYYCAASVDTGRYSVYYHGYTYDYWGQGTQVTVSS”, which “polyreactivity (PSR sort gate)” value is on record?
Answer: low polyreactivity

Question: With “QVQLVESGGGLVQAGGSLRLSCAASGFTFGSNTMGWYRQAPGKERELVAAITTSGDSTYYADSVKGRFTISRDNAKNTVYLQMNCLKPEDTAVYYCAAERRYGRYYRLVRLLGQGTQVTVSS” as the sequence, how does the “polyreactivity (PSR sort gate)” value read?
Answer: high polyreactivity

Question: For “QVQLVESGGGLVQAGGSLRLSCAASGSTFGYYAMGWYRPAPGKERELVAAINVSGGRTYYADSVKGRFTISRDNAKNTVYLQMNSLKPEDTAVYYCAAQRPEYRAGRYNYWGQGTQVTVSS”, which “polyreactivity (PSR sort gate)” value is on record?
Answer: high polyreactivity

Question: Which “polyreactivity (PSR sort gate)” value does the source give for “QVQLVESGGGLVQAGGSLRLSCAASGRIFPYNAMGWYRQAAGKERELVAAISLSGDSTYYADSVKGRFTISRDNAKNTVFLHMNSLKPEDTAVYYCNAPSYWYYPVLGSFLTFEYWGQGTQVTVSS” here?
Answer: low polyreactivity

Question: For “QVQLVESGVGLVQAGGSLRLSCAASGSIFATNDMGWYRQAPGKERELVASISSGGGSTYYADSVKGRFTISRDNAKNTVYFQMNSLKPEDTAVYYCAADRGDTYTTDYDYWGQGTQVTLSS”, which “polyreactivity (PSR sort gate)” value is on record?
Answer: low polyreactivity

Question: With “QVQLVESGGGLVHAGGSLRLSCDASGLTFAYYAMGWYRQAPGKERELVAAISWNGGRTYYADSVKGRFTISRDNAKNTVYLQMNSLKPEDTAVYYCAAQVTSSFYWGQGTQVTVSS” as the sequence, how does the “polyreactivity (PSR sort gate)” value read?
Answer: high polyreactivity

Question: For “QVQLVESGGGLVQAGGSLRLSCAASGSTYAYYAMGWYRQATGKERELVAAISLSSGCTYYADSVKGRFTISRDKAKNTVYLQMNSLKPEDTAVYYCAADFASDSSRYEYWGQGTQVTVSS”, which “polyreactivity (PSR sort gate)” value is on record?
Answer: low polyreactivity

Question: For “QVQLVESGGGLVQAGGRLRLSCAASGSIFRLYAMGWYRQAPGKEREFVAGITRRTGSTYYADSVKGRFTISRDNAKNTVNLQMNSLKPEDTAVYYCAKRDARATPFGYWGQGTQVTVSS”, which “polyreactivity (PSR sort gate)” value is on record?
Answer: high polyreactivity

Question: With “QVQLVESGGGLVQAGGSLRLSCAASGRTFDYYAMGWYRQAPGKERELVAAISSSGGSTYYADSVKGRFTISRDNAKNTVYLQMNSLKPEDTEVYYCNAYAYRFNHIHHIYTTDGEYWGQGTQVTVSS” as the sequence, how does the “polyreactivity (PSR sort gate)” value read?
Answer: high polyreactivity

Question: Which “polyreactivity (PSR sort gate)” value does the source give for “QGQLVESGGVLVQAGGSLRLSCAASGSIIQPYAMGWYRQAPGKERELVAAISRGGTTYYADSVKGRFTISRDNAKNTVYLQMNSLKPEDTAVYYCAVKGYRYGTRYDYWGQGTQVTVSS” here?
Answer: high polyreactivity

Question: Which “polyreactivity (PSR sort gate)” value does the source give for “QVQLVESGGGLVQAGGSLRLSCAASGRIFSFYTKGWYRQEPGKERHLVAANSGSGGSTYYADSVKGRFTISRDNAKNTVYLQMISLKPEDTEFYYCAAGYGFRYYLYDYWGQGTQVTVSS” here?
Answer: high polyreactivity

Question: Which “polyreactivity (PSR sort gate)” value does the source give for “QVQLVESGGGVVQAGGSLRLSCAASGRTFCIYAMGWYRPAPGKEREVVAAITGRGGSTHYADSVKGRFTISRDNAKNTVYLQMNSLKPEDTAVYYGAADYRYNRGITSNKDYDYWGQGTQVTVSS” here?
Answer: low polyreactivity

Question: Which “polyreactivity (PSR sort gate)” value does the source give for “QVQLVESGGGLVQAGGSLRLICAASGFTFGEYAMGWYRQAPGKERDFVASISWDGASTYYADSVKGRFTISRDNAKNTVYLQMKSLKPEDTAVYYCAATRYYSFWGQGTQVTVSS” here?
Answer: low polyreactivity

Question: Which “polyreactivity (PSR sort gate)” value does the source give for “QVQLVESGGGIVQAGGSLRLSCAATGRTFGYNAMGWYRQAPGKERELVAAIRTIGDSTYYADSVKGRFTISRDNAKNTVYLQMNSLKPEDTAVYYCAARKLRSRYDYWGQGTQVTVSS” here?
Answer: high polyreactivity

Question: With “QVQLVESGGGLVQAGGSLRLSCAASGSTFTSYAMGWYRQAPGKERELVASISRSGGSTYYADSVKGRFTISRDNAKNTVYLQMNSLKPEDTAVYYCAVRSVTWHGYWGQGTQVTVSS” as the sequence, how does the “polyreactivity (PSR sort gate)” value read?
Answer: high polyreactivity

Question: For “QVQLVESGGGLVQAGGSLRLSCAASGSIFDIYGMGWYRQAPGKERELVASISGGAGSTNYADSVKGRFTISRDTAKNTVYLQMNWLKPEDTAVYYCAAEVYVPDYFQHKFDVEYEYWGQGTQVTVSS”, which “polyreactivity (PSR sort gate)” value is on record?
Answer: low polyreactivity

Question: With “QVQLVESGGGLVQAGGSLRLSCAASGFTFPKYAMGWYRQSPGKERELVAGITNGGSTFYADSVKGRFTISRDNAKNTVYLQMNSLKPEDPAVYYCAASGRLSLGGRFYDLGLSYDYWGQGTQVTVSS” as the sequence, how does the “polyreactivity (PSR sort gate)” value read?
Answer: low polyreactivity

Question: For “QFQLVESGGGLVPAGGSLRLSCAASGRIFTGNAMGWSRQAPGKERELVASITYSDGSTYYADSVKGRFTISRDNATNTVYLKMNSLKPEDTAVYYCAADIRWGQGTQVTVSS”, which “polyreactivity (PSR sort gate)” value is on record?
Answer: low polyreactivity

Question: With “QVQLVESGVGLVQAGGSLRLSCAASGRIFWDYGMGWYRQAPGKERELVAVITWGGGSTYYADSVKGRFTISRDNAKNTVYLQMNSLKPEDTAVYYCAKEYHYYYWGQGTEVTVSS” as the sequence, how does the “polyreactivity (PSR sort gate)” value read?
Answer: low polyreactivity

Question: For “QVQLVESGGGLVQAGGSLRLSFAASGRTFEKYAMGWYRQAPGKERELVAAISGSGGSTFYADSVKGRFTISRDIAKYTVYLQMISLKPEDSAVYYCAADSRSHPGDYWGQGTQVTVSS”, which “polyreactivity (PSR sort gate)” value is on record?
Answer: low polyreactivity

Question: Which “polyreactivity (PSR sort gate)” value does the source give for “QVQLVESGGGLVQAGGSLRLSCAASGSTFRLNAMGWYRQAPGKERELVAAISWTGGSTYYADSVKGRFTISRDNAKNTVYLQMNSLKPEDTAVYYCAADWWQGTSHYWGGAYNYWGQGTQVTVSS” here?
Answer: low polyreactivity

Question: With “QVQLVESGGGLVQAGGSLRLSCAASGITFYEYAMGWYRQAPGKERELVAAISTSGGNTYYADSVKGRFTISRDNAKNTVYLQMKSLKPEDTAVYYCAAQGTASSYSGGDYWGQGTQVTVSS” as the sequence, how does the “polyreactivity (PSR sort gate)” value read?
Answer: low polyreactivity

Question: Which “polyreactivity (PSR sort gate)” value does the source give for “QVQLVESGGGLVQAGGSLRLSCAASGRIFYFNAMGWNRQAPGKERELVADISSGGRTNYADSVKGRFTISRDNAKNTVYLQMNSLKPEDTAVYYCNADPYTSSGGYRGYDFDYWGQGTQVTVSS” here?
Answer: low polyreactivity

Question: With “QVQLVESGGGLVQAGGRLRLSCAASGSTFSYYAMGWYRQAPGKEREMVAAISRTGGSTYYADSVKGRCTISRDNAKNTVYLQMNSLKAEDTAFYYCNARAPVGTFDYDYWGQGTQVTVSS” as the sequence, how does the “polyreactivity (PSR sort gate)” value read?
Answer: low polyreactivity

Question: Which “polyreactivity (PSR sort gate)” value does the source give for “QVQLVESGGGIVQAGGSLRLSCAASGRTFYPNGMGWYRQERGKERQLVAAITSGGRTNYADSVKGRFTISRDNAKNTVYLQMHSRKPEDTAVYYSNAVKRRSTSSGMDYWGQGTQVTVSS” here?
Answer: high polyreactivity

Question: For “QVQLVESGGGLVQAGGSLRLSCAASGSTFARYTMGWYRQAPGKERELVATITNRGGSTYYADSVKGRFTISRDNAKNTVYLQMNSLKPEVTAVYYCNKRYYWGGYDYWGQGTQVTVSS”, which “polyreactivity (PSR sort gate)” value is on record?
Answer: high polyreactivity

Question: For “QVQLVQSGGGLVQAGGSLRLSCAASGRIFVNNAMGWYIQAPGKERELVAAISVSGTTTYYADSVKGRFTISRDNAKNTVYLQMNSLKPEDTAVFYCAAEGSTYQGAPGVYYWGQGTQVTVSS”, which “polyreactivity (PSR sort gate)” value is on record?
Answer: high polyreactivity

Question: For “QVQLVESGGGLVQAGGSLRLSCAASGSTFIFNAMGWYRQAPGKERELVAAISWRVGRTYYADSVKGRFTISRDNAKNTVYLQMNSLKPEDTAVYYCAAPKSSTGHYYSWGQGTQVTVSS”, which “polyreactivity (PSR sort gate)” value is on record?
Answer: low polyreactivity

Question: Which “polyreactivity (PSR sort gate)” value does the source give for “QVQLVESGGGLLQAGGSLRLSCAASGRTFGHYAMGWYRQAPGKEREFVAAITRGGGRTYYADSVKGRFTISRDNAKNTVYLQMNSLKPEDTAVYYCARKQYWGYDYWGQGTQVTVSS” here?
Answer: low polyreactivity

Question: With “QVQLVESVGGLVQAGGSLRLSCAASGITFNRYAMGWYRQAPGKERELVAAITGGGSRTFYADSVKGRFTISGDNAKNTVDLQMNSLKPEDTAVYYCAKGLSTGRAYRGYDYWGQGTQVTVSS” as the sequence, how does the “polyreactivity (PSR sort gate)” value read?
Answer: high polyreactivity

Question: Which “polyreactivity (PSR sort gate)” value does the source give for “QVQLVESGGGLVQAGGSLRLSCAASGSTFIGNAMGWYRQAPGKERELVADISWSTASTYYADSVKGRFTISRDNAKNTVYLQMNSLKPEDTAVYYCARDPFVYLYLVDYDYWGQGTQVTVSS” here?
Answer: low polyreactivity

Question: For “QVQLVESGGGLVQAGCSLRLRCAASGRIYPYYAMGWYRQAPGKERELVAAIRGGGTSTRYADSVKGRFTISRDNAKKTVDLQMNSLKPSDTADYYCAAVWYSGSTRYSKYLEYYYWGQGTQVTVSS”, which “polyreactivity (PSR sort gate)” value is on record?
Answer: high polyreactivity

Question: For “QVQLVESGGGLVQAGGSLRLSCAASGSTFGWYAMGWYRQAPGKERELVAAISTSGGSSYYADSVKGRFTISRDNAKNTVYLQMNSLKPEDTAVYYCNGYYRRYSITFDRYDYWGQGSQVTVSS”, which “polyreactivity (PSR sort gate)” value is on record?
Answer: high polyreactivity

Question: For “QVQLVESGGGLVQAGGSLRLSCAASGSTFHYYAMGWYRQAPGKERELVAAISYRGSTYYADSVKGRFTISRDNAKNTVYLQMNSLKPEDTAVYYCAVVSSRGRRIYGYWGQGTQVTVSS”, which “polyreactivity (PSR sort gate)” value is on record?
Answer: high polyreactivity

Question: With “QVQLVESGGGLVQAGGSLRLSCAASGRTFWTNAMGWYRQAPGKERELVAAITKSGGRTYYADSVKGRFTISRDNAKNTVYLQMNRLKPEDTAVYYCAAYSQGEGGYWGQGTQVTVSS” as the sequence, how does the “polyreactivity (PSR sort gate)” value read?
Answer: high polyreactivity

Question: For “QVQLVESGGGLVQAGGSLRLSSAASGRIFSRYTMGWYRQAPGKERELVAAISWIGTRTYYADSVKGRFTISRDNAKNTVYLQMNSLKPEDTAVYYCNAVFGGYYGYVSNYKFDYWGHGTQVTVSS”, which “polyreactivity (PSR sort gate)” value is on record?
Answer: high polyreactivity

Question: With “QVQLVESGGGLVQAGGSLRLSCAASGSTFQRYAMGWYRQAPGKERELVAAITSGGSTYYADSVKGRFTISRDNAKNTVYLQMNSQKPEDTAVYYCNAAWFYRYGYWGQGTQVTVSS” as the sequence, how does the “polyreactivity (PSR sort gate)” value read?
Answer: high polyreactivity

Question: Which “polyreactivity (PSR sort gate)” value does the source give for “QVQLVESGGGLVQAGGSLRLSCAASGSTFYFYAMGWYREAPGKERELVAAISKRGTSTYYADSVKGRFTISRDNAKNTVYLEMNSLKPEDTAVYFCAADAPRGYNYWGQGTQVTVSS” here?
Answer: high polyreactivity

Question: For “QVQLVESGGGLVQAGGSLRLSCAASGSIFGGYTMGWYRQAPGKERELVAAISRRGGNTYYADSVKGRFTISRDNAKNTVYLQMNSMKPEDSAVYYCAVRWPSARIPVKLDYWGQGTQVNVSS”, which “polyreactivity (PSR sort gate)” value is on record?
Answer: high polyreactivity
